From PMC3869383

Target: 20S core particle purified from S. cerevisiae (S. cerevisiae (endogenous in yeast)) (UniProt P22141)
Assay: not given

| peptidase stimulation, % of WT base | Substance |
| --- | --- |
| 5 % WT | recombinant base variant NT3 (C-terminal tail of Rpt3 truncated) (from UniProt P33299;P40327;P33298;P53549;P33297;Q01939;P38764;P32565;O13563) (complex) |
| 10 % WT | recombinant base variant KS2 (Walker-A KS in Rpt2) (from UniProt P33299;P40327;P33298;P53549;P33297;Q01939;P38764;P32565;O13563) (complex) |
| 110 % WT | recombinant base variant EN2 (pore-2 loop EN in Rpt2) (from UniProt P33299;P40327;P33298;P53549;P33297;Q01939;P38764;P32565;O13563) (complex) |
| 108 % WT | recombinant base variant NT4 (C-terminal tail of Rpt4 truncated) (from UniProt P33299;P40327;P33298;P53549;P33297;Q01939;P38764;P32565;O13563) (complex) |
| 38 % WT | recombinant base variant YA2 (pore-1 loop YA in Rpt2) (from UniProt P33299;P40327;P33298;P53549;P33297;Q01939;P38764;P32565;O13563) (complex) |
| 84 % WT | recombinant base variant DN6 (pore-2 loop DN in Rpt6) (from UniProt P33299;P40327;P33298;P53549;P33297;Q01939;P38764;P32565;O13563) (complex) |
| 84 % WT | recombinant base variant YA1 (pore-1 loop YA in Rpt1) (from UniProt P33299;P40327;P33298;P53549;P33297;Q01939;P38764;P32565;O13563) (complex) |
| 118 % WT | recombinant base variant EQ5 (Walker-B EQ in Rpt5) (from UniProt P33299;P40327;P33298;P53549;P33297;Q01939;P38764;P32565;O13563) (complex) |
| 58 % WT | recombinant base variant KS3 (Walker-A KS in Rpt3) (from UniProt P33299;P40327;P33298;P53549;P33297;Q01939;P38764;P32565;O13563) (complex) |
| 192 % WT | recombinant base variant DN4 (pore-2 loop DN in Rpt4) (from UniProt P33299;P40327;P33298;P53549;P33297;Q01939;P38764;P32565;O13563) (complex) |
| 7 % WT | recombinant base variant NT5 (C-terminal tail of Rpt5 truncated) (from UniProt P33299;P40327;P33298;P53549;P33297;Q01939;P38764;P32565;O13563) (complex) |
| 110 % WT | recombinant base variant with the Walker-B EQ mutation in all six Rpt subunits (from UniProt P33299;P40327;P33298;P53549;P33297;Q01939;P38764;P32565;O13563) (complex) |
| 59 % WT | recombinant base variant KS5 (Walker-A KS in Rpt5) (from UniProt P33299;P40327;P33298;P53549;P33297;Q01939;P38764;P32565;O13563) (complex) |
| 10 % WT | recombinant base variant NT2 (C-terminal tail of Rpt2 truncated) (from UniProt P33299;P40327;P33298;P53549;P33297;Q01939;P38764;P32565;O13563) (complex) |
| 95 % WT | recombinant base variant EQ4 (Walker-B EQ in Rpt4) (from UniProt P33299;P40327;P33298;P53549;P33297;Q01939;P38764;P32565;O13563) (complex) |
| 54 % WT | recombinant base variant KS6 (Walker-A KS in Rpt6) (from UniProt P33299;P40327;P33298;P53549;P33297;Q01939;P38764;P32565;O13563) (complex) |

Target: 20S core particle purified from S. cerevisiae (S. cerevisiae (endogenous in yeast)) (UniProt P22141)
Assay: peptidase-stimulation

| Kd | Substance |
| --- | --- |
| 138 nM | recombinant base variant YA2 (pore-1 loop YA in Rpt2) (from UniProt P33299;P40327;P33298;P53549;P33297;Q01939;P38764;P32565;O13563) (complex) |

Target: recombinant base variant NT2 (C-terminal tail of Rpt2 truncated) (S. cerevisiae) (UniProt P33299)
Assay: ATPase-repression titration

| fold lower affinity than wild-type base | Substance |
| --- | --- |
| 1.3 fold | 20S core particle purified from S. cerevisiae (from UniProt P22141 1-198) (complex) |

Target: recombinant base variant NT5 (C-terminal tail of Rpt5 truncated) (S. cerevisiae) (UniProt P33299)
Assay: ATPase-repression titration

| fold lower affinity than wild-type base | Substance |
| --- | --- |
| 5.6 fold | 20S core particle purified from S. cerevisiae (from UniProt P22141 1-198) (complex) |
